Target: T1, STAT4 immunoprecipitated with anti-STAT4 from ConA-activated thymocytes
T1 sequence (P42228 1-749, species assumed, looked up): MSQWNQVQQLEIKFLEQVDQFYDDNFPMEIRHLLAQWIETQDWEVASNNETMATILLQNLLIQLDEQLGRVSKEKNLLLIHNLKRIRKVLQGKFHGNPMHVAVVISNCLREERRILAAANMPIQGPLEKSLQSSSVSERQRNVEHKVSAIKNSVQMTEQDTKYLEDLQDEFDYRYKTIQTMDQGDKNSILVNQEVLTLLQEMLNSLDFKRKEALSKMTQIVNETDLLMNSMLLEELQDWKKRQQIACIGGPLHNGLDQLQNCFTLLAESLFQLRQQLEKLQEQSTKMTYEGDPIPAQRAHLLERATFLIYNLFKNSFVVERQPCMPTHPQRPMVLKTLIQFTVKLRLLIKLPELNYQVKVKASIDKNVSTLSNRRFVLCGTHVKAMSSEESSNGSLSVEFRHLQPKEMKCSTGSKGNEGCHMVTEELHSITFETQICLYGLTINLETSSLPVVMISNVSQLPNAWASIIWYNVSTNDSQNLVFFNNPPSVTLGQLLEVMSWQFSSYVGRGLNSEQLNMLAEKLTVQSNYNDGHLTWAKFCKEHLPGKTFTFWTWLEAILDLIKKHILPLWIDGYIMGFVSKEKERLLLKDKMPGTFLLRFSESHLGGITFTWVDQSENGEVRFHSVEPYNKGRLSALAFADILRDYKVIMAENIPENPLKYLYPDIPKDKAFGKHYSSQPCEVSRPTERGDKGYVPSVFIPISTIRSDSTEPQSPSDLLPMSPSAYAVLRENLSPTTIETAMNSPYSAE

B1: recombinant SLIM (His-SLIM expressed in E. coli and purified on a Nickel column) (protein)
chain: MALTVDVAGPAPWGFRISGGRDFHTPIIVTKVTERGKAEAADLRPGDIIVAINGQSAENMLHAEAQSKIRQSASPLRLQLDRSQTASPGQTNGEGSLEVLATRFQGSLRTHRDSQSSQRSACFSPVSLSPRPCSPFSTPPPTSPVALSKEDMIGCSFQSLTHSPGLAAAHHLTYPGHPTSQQAGHSSPSDSAVRVLLHSPGRPSSPRFSLDLEEDSEVFKMLQENRQGRAAPRQSSSFRLLQEALEAEERGGTPAFVPSSLSSQASLPTSRALATPPKLHTCKKCSVNISNQAVRIQEGRYRHPGCYTCADCGLNLKMRGHFWVGNELYCEKHARQRYSMPGTLNSRA
in vitro ubiquitination of STAT4 (biotin-ubiquitin, E1, UbcH5a; immunoblot anti-STAT4): purified recombinant SLIM could mediate the in vitro ubiquitination of purified STAT4 which was immunoprecipitated from ConA-activated thymocytes

From patent US20060246543
